Experiment [1] has as its target CD20 on cells (Daudi cells, B cells in PBMCs) (human) (UniProt P11836). Briefly: cell-based or functional assay.
The target in experiment [2] is Soluble single-chain FcRn (extracellular domain of the human FcRn heavy chain fused with β2-microglobulin via a flexible peptide linker) (human) (UniProt P55899). Nature of the experiment: SPR (BIACORE X), scFcRn on CM5 chip, pH 6.0, two-state reaction model; mean of 3 runs, S.D. 21.5. Background: SPR reads the build-up and loss of mass on a sensor chip optically.
Experiment [3] has the same target. Nature of the experiment: SPR, scFcRn immobilised, pH 6.0.
Experiment [4] has the same target. Nature of the experiment: SPR (BIACORE X), scFcRn on CM5 chip, pH 6.0, two-state reaction model; mean of 3 runs, S.D. 2.72 × 10^4.
Experiment [5] shares this target. Briefly: SPR (BIACORE X), scFcRn on CM5 chip, pH 6.0, two-state reaction model; mean of 3 runs, S.D. 0.0024.
Experiment [6] has the same target. Nature of the experiment: SPR (BIACORE X), scFcRn amine-coupled to CM5 chip, antibody 25-400 nM as analyte, pH 6.0, two-state reaction model; Run 1.
The target is the same in experiment [7]. Briefly: SPR (BIACORE X), scFcRn amine-coupled to CM5 chip, antibody 25-400 nM as analyte, pH 6.0, two-state reaction model; Run 2.
Experiment [8] shares this target. Briefly: SPR (BIACORE X), scFcRn amine-coupled to CM5 chip, antibody 25-400 nM as analyte, pH 6.0, two-state reaction model; Run 3.
The target is the same in experiment [9]. Briefly: SPR (BIACORE X), scFcRn on CM5 chip, pH 6.0, two-state reaction model; mean of 3 runs, S.D. 1.5.
Experiment [10] concerns the target CD22 on cells (B cells in PBMCs, Daudi, D1-1 cells) (human) (UniProt P20273). Briefly: cell-based or functional assay.

Soluble single-chain FcRn (extracellular domain of the human FcRn heavy chain fused with β2-microglobulin via a flexible peptide linker) (human), sequence (P55899 24-297 limits assumed, chain 1 of 2): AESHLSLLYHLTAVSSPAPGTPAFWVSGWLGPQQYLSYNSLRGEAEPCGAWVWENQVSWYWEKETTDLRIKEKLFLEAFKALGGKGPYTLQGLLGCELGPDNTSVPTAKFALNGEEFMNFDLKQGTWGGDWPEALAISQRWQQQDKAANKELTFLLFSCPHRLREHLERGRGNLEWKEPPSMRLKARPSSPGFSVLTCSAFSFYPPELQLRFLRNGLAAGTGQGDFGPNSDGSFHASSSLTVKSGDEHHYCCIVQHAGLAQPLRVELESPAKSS
Soluble single-chain FcRn (extracellular domain of the human FcRn heavy chain fused with β2-microglobulin via a flexible peptide linker) (human), sequence (P61769 21-119 limits assumed, chain 2 of 2, further chain): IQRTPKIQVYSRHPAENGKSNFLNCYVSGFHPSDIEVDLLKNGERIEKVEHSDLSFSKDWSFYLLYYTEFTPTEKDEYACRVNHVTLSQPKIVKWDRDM
CD20 on cells (Daudi cells, B cells in PBMCs) (human), sequence (P11836 whole entry, the tested form may be a part): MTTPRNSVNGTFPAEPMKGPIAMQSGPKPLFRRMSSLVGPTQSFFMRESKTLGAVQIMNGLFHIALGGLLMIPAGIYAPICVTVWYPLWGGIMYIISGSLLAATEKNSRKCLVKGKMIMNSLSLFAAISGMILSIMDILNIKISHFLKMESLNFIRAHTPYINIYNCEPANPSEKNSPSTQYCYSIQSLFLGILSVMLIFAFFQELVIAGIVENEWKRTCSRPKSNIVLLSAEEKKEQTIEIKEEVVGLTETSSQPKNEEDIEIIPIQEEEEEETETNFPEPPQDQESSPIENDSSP

Take “20*-2b (Ck-AD2-IgG-veltuzumab conjugated with IFNα2b-DDD2) (from UniProt P01563 24-188)”: the cytotoxicity in Daudi cells, EC50 (MTS assay, 3 days) in experiment [1] turned out to be 200 nM.
The same measure, in the same setting: as for “20-2b (CH3-AD2-IgG-veltuzumab conjugated with IFNα2b-DDD2) (from UniProt P01563 24-188)”, the figure is 200 nM.
Consider “22*-(20)-(20), anti-CD22/CD20 bispecific hexavalent antibody (Ck-AD2-IgG-epratuzumab conjugated with CH1-DDD2-Fab-veltuzumab) (bispecific antibody)”, for which the equilibrium dissociation constant (Kd) (usually the constant that tells how readily two partners part at equilibrium) in experiment [2] came out at 166 nM; in [3] it was 155 nM; in experiment [6], 141 nM; in [7] it was 179 nM; in [8] it was 178 nM. In [3], this molecule gave a fold stronger binding affinity than 22-(20)-(20) of 2 fold. Further, the kon – broadly, the rate constant with which the complex forms – in experiment [4] was 251000 M⁻¹ s⁻¹; in experiment [6], 280000 M⁻¹ s⁻¹; in experiment [7] it was 226000 M⁻¹ s⁻¹; in experiment [8], 248000 M⁻¹ s⁻¹. For the same molecule, the koff (in general, the first-order rate constant of dissociation) was 0.0413 s⁻¹ in experiment [5], 0.0395 s⁻¹ in experiment [6], 0.0404 s⁻¹ in experiment [7] and 0.0441 s⁻¹ in experiment [8].
Consider “22-(20)-(20), Fc-based anti-CD22/CD20 bispecific hexavalent antibody (CH3-AD2-IgG-epratuzumab conjugated with CH1-DDD2-Fab-veltuzumab) (bispecific antibody)”, for which the Kd is 267 nM in experiment [7] and 352 nM in experiment [8].
Consider “Epratuzumab (humanized anti-CD22 IgG1κ) (antibody)”, for which the equilibrium dissociation constant (Kd) was found to be 15 nM in experiment [6], 16.3 nM in experiment [9], 17.9 nM in experiment [7] and 15.8 nM in [8].

B1: F(ab′)2 fragment of epratuzumab (protein, INN chains, looked up)
VH: QVQLVQSGAEVKKPGSSVKVSCKASGYTFTSYWLHWVRQAPGQGLEWIGYINPRNDYTEYNQNFKDKATITADESTNTAYMELSSLRSEDTAFYFCARRDITTFYWGQGTTVTVSS
VL: DIQLTQSPSSLSASVGDRVTMSCKSSQSVLYSANHKNYLAWYQQKPGKAPKLLIYWASTRESGVPSRFSGSGSGTDFTFTISSLQPEDIATYYCHQYLSSWTFGGGTKLEIK
modifications: F(ab')2
Molecule B1 showed a CD22 level on the surface of B cells in PBMCs (% of isotype control MFI), 10 µg/mL in experiment [10] of 45 % control.

The values above are taken from patent US20140212425A1.
